According to patent publication US20230406921A1 (MABWELL SHANGHAI BIOSCIENCE, published 2023):

B1: anti-human CD47/PD-L1 bispecific antibody 2MW1531-m1 (bispecific antibody)
heavy 1: EVQLVQSGAEVKKPGASVKVSCKASGYKFTNYVMSWVRQAPGQRLEWMGYINPYNDAIKYNEKFTGRVTITRDTSASTAYMELSSLRSEDTAVYYCAREGDFYANYGRLGFAYWGQGTLVTVSSASTKGPSVFPLAPCSRSTSESTAALGCLVKDYFPEPVTVSWNSGALTSGVHTFPAVLQSSGLYSLSSVVTVPSSSLGTQTYTCNVDHKPSNTKVDKRVESKYGPPCPPCPAPEFLGGPSVFLFPPKPKDTLMISRTPEVTCVVVDVSQEDPEVQFNWYVDGVEVHNAKTKPREEQYNSTYRVVSVLTVLHQDWLNGKEYKCKVSNKGLPSSIEKTISKAKGQPREPQVYTLPPSQKEMTKNQVSLTCLVKGFYPSDIAVEWESNGQPENNYKTTPPVLDSDGSFFLYSKLTVDKSRWQEGNVFSCSVMHEALHNRYTQKSLSLSLGK
heavy 2: EVQLVQSGAEVKKPGATVKISCKVSGFNIKDIYMHWVQQAPGKGLEWMGRIDPANANTKYDPKFQDRVTITADTSTNTAYMELSSLRSEDTAVYYCASGQLGPLGFDYWGQGTTVTVSSASTKGPSVFPLAPCSRSTSESTAALGCLVKDYFPEPVTVSWNSGALTSGVHTFPAVLQSSGLYSLSSVVTVPSSSLGTQTYTCNVDHKPSNTKVDKRVESKYGPPCPPCPAPEFLGGPSVFLFPPKPKDTLMISRTPEVTCVVVDVSQEDPEVQFNWYVDGVEVHNAKTKPREEQYNSTYRVVSVLTVLHQDWLNGKEYKCKVSNKGLPSSIEKTISKAKGQPREPQVYTLPPSQEEMTKNQVSLTCLVKGFYPSDIAVEWESNGQPENNYKTTPPVLDSDGSFFLYSKLTVDKSRWQEGNVFSCSVMHEALHNHYTQESLSLSLGK
VL: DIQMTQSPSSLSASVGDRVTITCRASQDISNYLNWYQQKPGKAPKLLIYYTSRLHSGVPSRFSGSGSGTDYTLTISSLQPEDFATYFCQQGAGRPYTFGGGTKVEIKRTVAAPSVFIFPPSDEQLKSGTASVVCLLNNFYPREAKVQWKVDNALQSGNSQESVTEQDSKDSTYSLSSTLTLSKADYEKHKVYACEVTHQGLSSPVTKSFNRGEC
notes: Knobs-into-holes with a common light chain
B2: anti-human CD47/PD-L1 bispecific antibody 2MW1531-m2 (bispecific antibody)
heavy 1: EVQLVQSGAEVKKPGASVKVSCKASGYKFTNYVMSWVRQAPGQRLEWMGYINPYNDAIKYNEKFTGRVTITRDTSASTAYMELSSLRSEDTAVYYCAREGDFYANYGRLGFAYWGQGTLVTVSSASTKGPSVFPLAPCSRSTSESTAALGCLVKDYFPEPVTVSWNSGALTSGVHTFPAVLQSSGLYSLSSVVTVPSSSLGTQTYTCNVDHKPSNTKVDKRVESKYGPPCPPCPAPEFLGGPSVFLFPPKPKDTLMISRTPEVTCVVVDVSQEDPEVQFNWYVDGVEVHNAKTKPREEQYNSTYRVVSVLTVLHQDWLNGKEYKCKVSNKGLPSSIEKTISKAKGQPREPQVYTLPPSQKEMTKNQVSLTCLVKGFYPSDIAVEWESNGQPENNYKTTPPVLDSDGSFFLYSKLTVDKSRWQEGNVFSCSVMHEALHNRYTQKSLSLSLGK
heavy 2: EVQLVQSGAEVKKPGATVKISCKVSGFNIKDIYMHWVQQAPGKGLEWMGRIDPANANTKYDPKFQDRVTITADTSTNTAYMELSSLRSEDTAVYYCASGQLGPLGFDYWGQGTTVTVSSASTKGPSVFPLAPCSRSTSESTAALGCLVKDYFPEPVTVSWNSGALTSGVHTFPAVLQSSGLYSLSSVVTVPSSSLGTQTYTCNVDHKPSNTKVDKRVESKYGPPCPPCPAPEFLGGPSVFLFPPKPKDTLMISRTPEVTCVVVDVSQEDPEVQFNWYVDGVEVHNAKTKPREEQYNSTYRVVSVLTVLHQDWLNGKEYKCKVSNKGLPSSIEKTISKAKGQPREPQVYTLPPSQEEMTKNQVSLTCLVKGFYPSDIAVEWESNGQPENNYKTTPPVLDSDGSFFLYSKLTVDKSRWQEGNVFSCSVMHEALHNHYTQESLSLSLGK
VL: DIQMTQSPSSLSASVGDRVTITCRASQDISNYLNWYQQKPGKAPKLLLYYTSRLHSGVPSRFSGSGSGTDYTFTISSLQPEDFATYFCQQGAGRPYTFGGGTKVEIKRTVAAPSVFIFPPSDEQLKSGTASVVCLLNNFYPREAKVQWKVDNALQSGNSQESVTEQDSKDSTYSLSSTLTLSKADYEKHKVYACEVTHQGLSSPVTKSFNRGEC
notes: as for B1
B3: anti-human CD47/PD-L1 bispecific antibody 2MW1531-m4 (bispecific antibody)
heavy 1: EVQLVQSGAEVKKPGASVKVSCKASGYKFTNYVMSWVRQAPGQRLEWMGYINPYNDAIKYNEKFTGRVTITRDTSASTAYMELSSLRSEDTAVYYCAREGDFYANYGRLGFAYWGQGTLVTVSSASTKGPSVFPLAPCSRSTSESTAALGCLVKDYFPEPVTVSWNSGALTSGVHTFPAVLQSSGLYSLSSVVTVPSSSLGTQTYTCNVDHKPSNTKVDKRVESKYGPPCPPCPAPEFLGGPSVFLFPPKPKDTLMISRTPEVTCVVVDVSQEDPEVQFNWYVDGVEVHNAKTKPREEQYNSTYRVVSVLTVLHQDWLNGKEYKCKVSNKGLPSSIEKTISKAKGQPREPQVYTLPPSQKEMTKNQVSLTCLVKGFYPSDIAVEWESNGQPENNYKTTPPVLDSDGSFFLYSKLTVDKSRWQEGNVFSCSVMHEALHNRYTQKSLSLSLGK
heavy 2: EVQLVQSGAEVKKPGATVKISCKVSGFNIKDIYMHWVQQAPGKGLEWMGRIDPANANTKYDPKFQDRVTITADTSTNTAYMELSSLRSEDTAVYYCASGQLGPLGFDYWGQGTTVTVSSASTKGPSVFPLAPCSRSTSESTAALGCLVKDYFPEPVTVSWNSGALTSGVHTFPAVLQSSGLYSLSSVVTVPSSSLGTQTYTCNVDHKPSNTKVDKRVESKYGPPCPPCPAPEFLGGPSVFLFPPKPKDTLMISRTPEVTCVVVDVSQEDPEVQFNWYVDGVEVHNAKTKPREEQYNSTYRVVSVLTVLHQDWLNGKEYKCKVSNKGLPSSIEKTISKAKGQPREPQVYTLPPSQEEMTKNQVSLTCLVKGFYPSDIAVEWESNGQPENNYKTTPPVLDSDGSFFLYSKLTVDKSRWQEGNVFSCSVMHEALHNHYTQESLSLSLGK
VL: DIQMTQSPSSLSASVGDRVTITCRASQDITNYLNWYQQKPGKAPKLLLYYTSRLHSGVPSRFSGSGSGTDYTLTISSLQPEDFATYFCQQGAGRPYTFGGGTKVEIKRTVAAPSVFIFPPSDEQLKSGTASVVCLLNNFYPREAKVQWKVDNALQSGNSQESVTEQDSKDSTYSLSSTLTLSKADYEKHKVYACEVTHQGLSSPVTKSFNRGEC
notes: as for B1
B4: anti-human CD47/PD-L1 bispecific antibody 2MW1531-m6 (bispecific antibody)
heavy 1: EVQLVQSGAEVKKPGASVKVSCKASGYKFTNYVMSWVRQAPGQRLEWMGYINPYNDAIKYNEKFTGRVTITRDTSASTAYMELSSLRSEDTAVYYCAREGDFYANYGRLGFAYWGQGTLVTVSSASTKGPSVFPLAPCSRSTSESTAALGCLVKDYFPEPVTVSWNSGALTSGVHTFPAVLQSSGLYSLSSVVTVPSSSLGTQTYTCNVDHKPSNTKVDKRVESKYGPPCPPCPAPEFLGGPSVFLFPPKPKDTLMISRTPEVTCVVVDVSQEDPEVQFNWYVDGVEVHNAKTKPREEQYNSTYRVVSVLTVLHQDWLNGKEYKCKVSNKGLPSSIEKTISKAKGQPREPQVYTLPPSQKEMTKNQVSLTCLVKGFYPSDIAVEWESNGQPENNYKTTPPVLDSDGSFFLYSKLTVDKSRWQEGNVFSCSVMHEALHNRYTQKSLSLSLGK
heavy 2: EVQLVQSGAEVKKPGATVKISCKVSGFNIKDIYMHWVQQAPGKGLEWMGRIDPANANTKYDPKFQDRVTITADTSTNTAYMELSSLRSEDTAVYYCASGQLGPLGFDYWGQGTTVTVSSASTKGPSVFPLAPCSRSTSESTAALGCLVKDYFPEPVTVSWNSGALTSGVHTFPAVLQSSGLYSLSSVVTVPSSSLGTQTYTCNVDHKPSNTKVDKRVESKYGPPCPPCPAPEFLGGPSVFLFPPKPKDTLMISRTPEVTCVVVDVSQEDPEVQFNWYVDGVEVHNAKTKPREEQYNSTYRVVSVLTVLHQDWLNGKEYKCKVSNKGLPSSIEKTISKAKGQPREPQVYTLPPSQEEMTKNQVSLTCLVKGFYPSDIAVEWESNGQPENNYKTTPPVLDSDGSFFLYSKLTVDKSRWQEGNVFSCSVMHEALHNHYTQESLSLSLGK
VL: DIQMTQSPSSLSASVGDRVTITCRASQDISNYLNWYQQKPGKAPKLLLYYTSRLHSGVPSRFSGSGSGTDYTLTISSLQPEDFATYFCQQGATRPYTFGGGTKVEIKRTVAAPSVFIFPPSDEQLKSGTASVVCLLNNFYPREAKVQWKVDNALQSGNSQESVTEQDSKDSTYSLSSTLTLSKADYEKHKVYACEVTHQGLSSPVTKSFNRGEC
notes: as for B1
B5: anti-human CD47/PD-L1 bispecific antibody 2MW1531-m5 (bispecific antibody)
heavy 1: EVQLVQSGAEVKKPGASVKVSCKASGYKFTNYVMSWVRQAPGQRLEWMGYINPYNDAIKYNEKFTGRVTITRDTSASTAYMELSSLRSEDTAVYYCAREGDFYANYGRLGFAYWGQGTLVTVSSASTKGPSVFPLAPCSRSTSESTAALGCLVKDYFPEPVTVSWNSGALTSGVHTFPAVLQSSGLYSLSSVVTVPSSSLGTQTYTCNVDHKPSNTKVDKRVESKYGPPCPPCPAPEFLGGPSVFLFPPKPKDTLMISRTPEVTCVVVDVSQEDPEVQFNWYVDGVEVHNAKTKPREEQYNSTYRVVSVLTVLHQDWLNGKEYKCKVSNKGLPSSIEKTISKAKGQPREPQVYTLPPSQKEMTKNQVSLTCLVKGFYPSDIAVEWESNGQPENNYKTTPPVLDSDGSFFLYSKLTVDKSRWQEGNVFSCSVMHEALHNRYTQKSLSLSLGK
heavy 2: EVQLVQSGAEVKKPGATVKISCKVSGFNIKDIYMHWVQQAPGKGLEWMGRIDPANANTKYDPKFQDRVTITADTSTNTAYMELSSLRSEDTAVYYCASGQLGPLGFDYWGQGTTVTVSSASTKGPSVFPLAPCSRSTSESTAALGCLVKDYFPEPVTVSWNSGALTSGVHTFPAVLQSSGLYSLSSVVTVPSSSLGTQTYTCNVDHKPSNTKVDKRVESKYGPPCPPCPAPEFLGGPSVFLFPPKPKDTLMISRTPEVTCVVVDVSQEDPEVQFNWYVDGVEVHNAKTKPREEQYNSTYRVVSVLTVLHQDWLNGKEYKCKVSNKGLPSSIEKTISKAKGQPREPQVYTLPPSQEEMTKNQVSLTCLVKGFYPSDIAVEWESNGQPENNYKTTPPVLDSDGSFFLYSKLTVDKSRWQEGNVFSCSVMHEALHNHYTQESLSLSLGK
VL: DIQMTQSPSSLSASVGDRVTITCRASQDISNYLNWYQQKPGKAPKLLLYYTSRLHSGVPSRFSGSGSGTDYTLTISSLQPEDFATYFCQQGDGRPYTFGGGTKVEIKRTVAAPSVFIFPPSDEQLKSGTASVVCLLNNFYPREAKVQWKVDNALQSGNSQESVTEQDSKDSTYSLSSTLTLSKADYEKHKVYACEVTHQGLSSPVTKSFNRGEC
notes: as for B1

How the values were obtained:
[1] = biological target: T1, recombinant antigen of the extracellular region of CD47 (Sino Biological, Cat: 12283-H08H) (human, UniProt Q08722 19-139); assay: Fortebio BLI
T1 construct: extracellular domain; also called recombinant CD47 extracellular region; CD47 recombinant protein

PD-L1 = PD-L1 (human, UniProt Q9NZQ7 19-239, limits assumed); assay: Fortebio BLI
[2] = biological target: T2, CD47 on the surface of human red blood cells (human, UniProt Q08722 19-323); assay: FACS, human red blood cells, antibody 1000 nM
T2 construct: whole, on cells; Same protein as m3, on red blood cells; also called hRBC; RBC
Experimental: (§1) In the experiment of analyzing the binding to human red blood cells, the antibody was used at a concentration of 1000 nM; and in the experiment of analyzing the binding to tumor cells, the antibody was used at a concentration of 100 nM.

[3] = biological target: T3, CD47 on the surface of tumor cells (human, UniProt Q08722 19-323); assay: FACS, SKOV-3 tumor cells (no PD-L1), antibody 100 nM
T3 construct: whole, on cells; Same protein as m4; also called CD47 antigen on the surface of U937 and CCRF cells; SKOV-3
Experimental: as §1

PD-L1, sequence (Q9NZQ7 19-239 limits assumed): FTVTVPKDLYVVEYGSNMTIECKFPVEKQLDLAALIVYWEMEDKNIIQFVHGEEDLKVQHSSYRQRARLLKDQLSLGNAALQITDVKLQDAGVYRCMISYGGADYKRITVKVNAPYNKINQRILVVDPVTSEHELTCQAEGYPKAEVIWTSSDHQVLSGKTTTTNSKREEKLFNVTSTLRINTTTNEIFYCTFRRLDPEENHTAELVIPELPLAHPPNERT

Row | Binder | Kd [1] [nM] | koff [1] [s⁻¹] | kon [1] [M⁻¹ s⁻¹] | Kd (PD-L1) [nM] | koff (PD-L1) [s⁻¹] | kon (PD-L1) [M⁻¹ s⁻¹] | Binding to human red blood cells (MFI) [2] [MFI] | Binding to tumor cells (MFI) [3] [MFI]
1 | B1 | 22.5 | 0.00213 | 94600 | 1.59 | 0.000387 | 243000 | 888 | 33300
2 | B2 | 81 | 0.00678 | 83700 | 3.26 | 0.000696 | 213000 | 799 | 29900
3 | B3 | 26.5 | 0.00321 | 121000 | 3.78 | 0.000707 | 187000 | 903 | 31100
4 | B4 | 84.5 | 0.00879 | 104000 | 1.73 | 0.000496 | 287000 | 912 | 24700
5 | B5 | 10.8 | 0.00101 | 93600 | 1.02 | 0.000357 | 347000 | 807 | 30900
